The results in this text go back to PMC9340540.

As a reminder, the stoichiometry N is the number of molecules, sites or subunits per partner or assembly.

The target of experiment [1] is CHN-1 (C. elegans).
Target sequence in this assay (main, as listed by the source): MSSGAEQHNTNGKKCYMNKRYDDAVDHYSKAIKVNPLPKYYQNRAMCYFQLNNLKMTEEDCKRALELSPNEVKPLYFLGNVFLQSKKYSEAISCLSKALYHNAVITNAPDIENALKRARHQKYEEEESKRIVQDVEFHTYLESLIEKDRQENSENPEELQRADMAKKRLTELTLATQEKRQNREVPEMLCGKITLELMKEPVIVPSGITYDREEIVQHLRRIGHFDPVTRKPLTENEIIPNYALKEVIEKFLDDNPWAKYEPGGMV
Experiment [2] addresses CHN-1 (C. elegans). Nature of the experiment: SEC; S200 Superdex column; CHN-1 alone, UFD-2 alone and CHN-1 + UFD-2 mixed in equal molar ratios. On the technique in general: Size exclusion chromatography separates by hydrodynamic size, large species first.

UFD-2, sequence (Q09349 whole entry): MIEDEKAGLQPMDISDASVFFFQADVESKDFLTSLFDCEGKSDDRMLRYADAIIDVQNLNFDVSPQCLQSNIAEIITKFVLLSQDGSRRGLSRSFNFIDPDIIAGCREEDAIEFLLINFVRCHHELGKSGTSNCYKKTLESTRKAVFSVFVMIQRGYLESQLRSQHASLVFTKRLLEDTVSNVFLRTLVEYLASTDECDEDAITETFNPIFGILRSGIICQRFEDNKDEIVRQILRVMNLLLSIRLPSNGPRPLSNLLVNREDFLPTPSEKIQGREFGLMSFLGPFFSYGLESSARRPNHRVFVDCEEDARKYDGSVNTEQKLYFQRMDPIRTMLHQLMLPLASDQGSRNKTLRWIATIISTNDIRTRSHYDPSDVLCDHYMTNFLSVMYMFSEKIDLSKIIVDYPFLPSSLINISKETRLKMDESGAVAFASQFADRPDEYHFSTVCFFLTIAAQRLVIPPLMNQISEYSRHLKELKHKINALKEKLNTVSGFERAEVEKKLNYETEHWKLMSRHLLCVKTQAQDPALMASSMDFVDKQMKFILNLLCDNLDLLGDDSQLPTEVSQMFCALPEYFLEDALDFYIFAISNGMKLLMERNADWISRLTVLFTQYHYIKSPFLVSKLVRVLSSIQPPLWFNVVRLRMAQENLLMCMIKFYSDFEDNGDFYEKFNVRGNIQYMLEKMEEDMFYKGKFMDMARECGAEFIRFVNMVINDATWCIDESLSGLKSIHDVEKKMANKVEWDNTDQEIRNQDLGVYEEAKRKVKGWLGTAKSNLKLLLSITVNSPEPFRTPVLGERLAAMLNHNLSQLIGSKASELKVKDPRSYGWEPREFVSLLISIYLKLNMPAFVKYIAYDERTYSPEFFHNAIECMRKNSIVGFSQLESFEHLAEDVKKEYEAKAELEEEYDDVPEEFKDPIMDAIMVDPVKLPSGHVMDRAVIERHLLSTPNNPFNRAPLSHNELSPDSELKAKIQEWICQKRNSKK

“UFD-2 (from UniProt Q09349 1-984) (enzyme)” registered a CHN-1 auto-ubiquitylation (UBE2D1); UFD-2 titrated at 0.3, 0.65 and 1.3 μM against 1.3 μM CHN-1 with CHN-1 (C. elegans) [1] of 2 fold.
In the case of CHN-1 (enzyme), the stoichiometry N with CHN-1 (C. elegans) [2] was 2.
